CN113150152A (UNIV XI AN JIAOTONG, dated 2021)

Tests used:
[1] = molecular target: T1, 人TIM-3重组蛋白 (T cell immunoglobulin domain and mucin domain-3) (human, UniProt Q8TDQ0 22-202, limits assumed); test: same number as the ELISA EC50 of paragraph 67, here called KD
T1 construct: Recombinant protein coated on 96-well plates; The construct is not described; also called TIM-3蛋白

[2] = molecular target: T1, 人TIM-3重组蛋白 (T cell immunoglobulin …); test: ELISA, coated TIM-3 recombinant protein, serially diluted nanobody, anti-his detection, GraphPad least-squares fit

Kd [1]: 76 nM
EC50 [2]: 76 nM
B1: NbR2G3 (抗人源T细胞表面抑制性分子TIM-3的特异性纳米抗体) (VHH)
VHH: QVQLVESGGGLVQAGGSLRLSCAASGRTISNYNMGWFRQAPGKEREFAAITRSGGSTYYADSAKGRFTISRDNAKNTVYLQMNSLKPDDTAVYYCDAIPEGLVGRNLGYWGQGTQVTVSS
